Reference: PMC11948038, “Evolutionary Pro‐To‐Thr Mutation in the Intrinsically Disordered Domain of ANP32 Family Members Modulates Their Target Binding Modes” (Advanced Science, 2025)

B1: cytochrome c (natural protein)
chain: not shown
notes: cytochrome c (Cc), a hemeprotein; Carries a heme group; the reduced form was used in ITC and NMR relaxation; 15N-labelled for the NMR titrations; Expression and purification are in the Supporting Information Appendix; also called Cc; hemeprotein Cc; source: details in the Supporting Information
B2: ANP32A_(230-249) P241T peptide (peptide)
peptide: EEERGQKRKRETEDEGEDDD
notes: also called single mutant; source: synthetic peptide (Genecust, France)
B3: ANP32A_(230-249) Q235E/P241T peptide (peptide)
peptide: EEERGEKRKRETEDEGEDDD
notes: also called double mutant; source: synthetic peptide (Genecust, France)
B4: ANP32A_(230-249) peptide (peptide)
peptide: EEERGQKRKREPEDEGEDDD
notes: also called ANP32A peptide; NLS-containing peptide; source: synthetic peptide (Genecust, France)
B5: ANP32B_(232-251) peptide (peptide)
peptide: EEGGKGEKRKRETDDEGEDD
notes: also called ANP32B peptide; source: synthetic peptide (Genecust, France)
B6: ANP32A_(230-249) peptide (peptide)
peptide: EEERGQKRKREPEDEGEDDD
notes: also called ANP32A peptide; source: synthetic peptide (Genecust, France)
B7: ANP32B_(232-251) peptide (peptide)
peptide: EEGGKGEKRKRETDDEGEDD
notes: as for B5

Experiments:
Details in all cases: both partners purified
[1] = biological target: T1, full-length ANP32A (human, UniProt P39687 1-249); assay: ITC; moderate ionic strength (100 mM): 20 mM sodium phosphate pH 7.4 with 50 mM NaCl; 400 µM reduced Cc injected into 50 µM ANP32A; single site
T1 construct: Used in ITC and NMR titrations; construct details are in the Supporting Information Appendix; also called acidic leucine-rich nuclear phosphoprotein 32 A; source: details in the Supporting Information

[2] = biological target: T1, full-length ANP32A; assay: ITC; low ionic strength (25 mM): 10 mM sodium phosphate pH 7.4; 400 µM reduced Cc injected into 50 µM ANP32A construct; two-ligand binding sites model, no cooperativity
[3] = biological target: T2, biotinylated ANP32A (human, UniProt P39687 1-249, biotin (site not stated)); assay: BLI; biotinylated ANP32 proteins on a streptavidin-coated sensor, increasing concentrations of Cc; wavelength shifts at equilibrium plotted against Cc concentration
T2 construct: ANP32A, human, biotinylated and attached to a streptavidin-coated sensor

[4] = biological target: T3, biotinylated ANP32B (human, UniProt Q92688 1-251, biotin (site not stated)); assay: as above
T3 construct: ANP32B, human, biotinylated and attached to a streptavidin-coated sensor

[5] = biological target: T1, full-length ANP32A; assay: ITC; low ionic strength (25 mM): 10 mM sodium phosphate pH 7.4; 400 µM reduced Cc injected into 50 µM ANP32A construct; two-ligand binding sites model, no cooperativity; remark: listed apart in the source
[6] = biological target: B1; assay: ITC; 1 mM peptide titrated onto 110 or 150 µM reduced Cc; 10 mM sodium phosphate pH 6.3; single binding-site model
[7] = biological target: T4, HuR_(106-326) (UniProt Q15717 106-326); assay: ITC; 1 mM peptide titrated onto 100 µM HuR_(106-326); 10 mM sodium phosphate pH 6.3, low ionic strength
T4 construct: also called HuR construct containing the RRM domains 2 and 3, separated by the hinge region; source: details in the Supporting Information
T4 sequence (Q15717 106-326): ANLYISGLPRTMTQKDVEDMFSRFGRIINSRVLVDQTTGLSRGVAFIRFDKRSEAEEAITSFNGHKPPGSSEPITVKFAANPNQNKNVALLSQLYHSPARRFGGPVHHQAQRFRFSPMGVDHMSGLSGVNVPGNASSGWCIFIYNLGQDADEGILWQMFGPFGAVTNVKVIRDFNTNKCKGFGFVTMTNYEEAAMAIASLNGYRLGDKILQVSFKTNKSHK

[8] = biological target: T5, HuR_(106-326) (UniProt Q15717 106-326); assay: ITC; 1 mM peptide titrated onto 100 µM HuR106-326 in the cell; 17 injections of 2.91 µL; 10 mM sodium phosphate buffer pH 6.3 (low ionic strength); stirring 200 rpm; Nano ITC Low Volume
T5 construct: amplified from a pGEX-4T-2 plasmid carrying full-length HuR; No cleavage of the tags is told; also called human antigen R construct with RRM2, hinge region and RRM3; source: E. coli BL21 (DE3), purified (Ni-NTA, dialysis)
T5 sequence (Q15717 106-326): as above

B1
Kd [1]: 32 µM
dH [1]: 6.28 kJ/mol
stoichiometry N [1]: 0.6 ± 0.03
stoichiometry N [2]: 2
Kd [3]: ~2.3 µM
Kd [4]: ~4.2 µM
KD of site 1 [5]: 3.6 µM
KD of site 2 [5]: 34 µM
dH of site 1 [5]: 1.67 kJ/mol
dH of site 2 [5]: 36 kJ/mol

B2
Kd [6]: 190 µM
dH [6]: -28.9 kJ/mol
stoichiometry N [6]: 0.77 ± 0.03

B3
Kd [6]: 190 µM
dH [6]: -34.3 kJ/mol
stoichiometry N [6]: 0.77 ± 0.03

B4
Kd [6]: 69 µM
dH [6]: -10.9 kJ/mol
stoichiometry N [6]: 0.76 ± 0.03
fold affinity against ANP32B_(232-251) [7]: ~5 fold
stoichiometry N [7]: 2

B5
Kd [6]: 710 µM
dH [6]: -33.5 kJ/mol
stoichiometry N [6]: 1.2 ± 0.03
stoichiometry N [7]: 2

B6
Kd [8]: 120 µM
stoichiometry N [8]: 1.8 ± 0.03

B7
Kd [8]: 550 µM
stoichiometry N [8]: 1.9 ± 0.03
